This data set concerns the molecule itself. Briefly: crystal structure.

B1: minimal functional chicken ASIC1 construct (cASIC1mfc) (domain or fragment, UniProt Q1XA76 2-466, looked up)
chain: MDLKVDEEEVDSGQPVSIQAFASSSTLHGISHIFSYERLSLKRVVWALCFMGSLALLALVCTNRIQYYFLYPHVTKLDEVAATRLTFPAVTFCNLNEFRFSRVTKNDLYHAGELLALLNNRYEIPDTQTADEKQLEILQDKANFRNFKPKPFNMLEFYDRAGHDIREMLLSCFFRGEQCSPEDFKVVFTRYGKCYTFNAGQDGKPRLITMKGGTGNGLEIMLDIQQDEYLPVWGETDETSFEAGIKVQIHSQDEPPLIDQLGFGVAPGFQTFVSCQEQRLIYLPPPWGDCKATTGDSEFYDTYSITACRIDCETRYLVENCNCRMVHMPGDAPYCTPEQYKECADPALDFLVEKDNEYCVCEMPCNVTRYGKELSMVKIPSKASAKYLAKKYNKSEQYIGENILVLDIFFEALNYETIEQKKAYEVAGLLGDIGGQMGLFIGASILTVLELFDYAYEVIKHRLCR
Regarding B1, the stoichiometry N – broadly, the number of molecules, sites or subunits per partner or assembly – stood at 3.

(Values after PMC2845979 (Nature, 2009).)
